This is an account of results in the supplement of paper PMC7877785.

This series in a line: self-splicing fitness, log relative to wild type (ln ratio); higher = more splicing; Tetrahymena group I intron in knt gene, E. coli kanamycin selection, DiMSum; sequences stand for … in CUCUCU…GGAGGGAAAAGUUAUCAGGCAUGCACCUGGUAGCUAGUCUUUAAACCAAUAGAUUGCAUCGGUUUAAAAGGCAAGACCGUCAAAUUGCGGGAAAGGGGUCAACAGCCGUUCAGUACCAAGUCUCAGGGGAAACUUUGAGAUGGCCUUGCAAAGGGUAUGGUAAUAAGCUGACGGACAUGGUCCUAACCACGCAGCCAAGUCCUAAGUCAACAGAUCUUCUGUUGAUAUGGAUGCAGUUCACAGACUAAAUGUCGGUCGGGGAAGAUGUAUUCUUCUCAUAAGAUAUAGUCGGACCUCUCCUUAAUGGGAGCUAGCGGAUGAAGUGAUGCAACACUGGAGCCGCUGGGAACUAAUUUGUAUGCGAAAGUAUAUUGAUUAGUUUUGGAGUACUCGUGGUCG
The procedure, abridged:
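Six replicate transformations of E. coli BL21(DE3) with a pET-22b(+) library were grown overnight at 37°C or 30°C. The library randomised all eight P1ex-region intron nucleotides, the intron lying in the knt kanamycin-resistance gene, and plates were LB agar with or without 25 μg/mL kanamycin plus 100 μg/mL carbenicillin, 50 μM IPTG and 0.2% rhamnose. Pooled colonies were amplicon-sequenced on an Illumina HiSeq 2500, and fitness is the DiMSum error-weighted combination of wild-type-normalised replicate fold changes, kanamycin versus none.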

± gives the uncertainty stated by the source.

In the case of CGCAAGCAAUAUUACGACAG, the “self-splicing fitness (ln)” value is, setting by setting: (30 °C) -0.409 ± 0.083; (37 °C) 0.344 ± 0.13. In the same order, the values of UGUAAGCAAUAUUACGUCCA are 0.388 ± 0.1 and -0.132 ± 0.12.

Take AUGGAGCAAUAUUACGUGAA: the “self-splicing fitness (ln)” value reads like this: (30 °C) -2.92 ± 0.27; (37 °C) -2.03 ± 0.42. The corresponding values for UAGCAGCAAUAUUACGAAUG are -0.736 ± 0.072 and -0.47 ± 0.13.

Consider UGAGAGCAAUAUUACGACAG, for which the “self-splicing fitness (ln)” value is -4.41 ± 0.39 (30 °C) and -3.07 ± 0.34 (37 °C).

For UCGAAGCAAUAUUACGGGUG, the “self-splicing fitness (ln)” value (30 °C) was -0.763 ± 0.083 and the “self-splicing fitness (ln)” value (37 °C) is -0.756 ± 0.097.

For the sequence GAGAAGCAAUAUUACGGUCA, the “self-splicing fitness (ln)” value is, setting by setting: (30 °C) -0.263 ± 0.1; (37 °C) 0.383 ± 0.12. The corresponding values for ACAUAGCAAUAUUACGGCCA are -0.771 ± 0.12 and -0.572 ± 0.13. Turning to UUAGAGCAAUAUUACGCCAU, the “self-splicing fitness (ln)” value (30 °C) is -2.82 ± 0.32.

Consider UUAAAGCAAUAUUACGCAUG, for which the “self-splicing fitness (ln)” value is -0.545 ± 0.12 (30 °C) and 0.368 ± 0.13 (37 °C). For GAUUAGCAAUAUUACGCAGU, the “self-splicing fitness (ln)” value by setting is: (30 °C) -3.28 ± 0.32; (37 °C) -1.44 ± 0.19. As for CUUCAGCAAUAUUACGACAU, the “self-splicing fitness (ln)” value is -3.599 ± 0.023 (30 °C) and -2.28 ± 0.036 (37 °C). In the case of GACCAGCAAUAUUACGUGGC, the “self-splicing fitness (ln)” value by setting is: (30 °C) -4.25 ± 0.21; (37 °C) -2.88 ± 0.16. Turning to UGAAAGCAAUAUUACGACGU, the “self-splicing fitness (ln)” value is, setting by setting: (30 °C) -1.06 ± 0.065; (37 °C) -0.131 ± 0.084.

Take CGACAGCAAUAUUACGGGAC: the “self-splicing fitness (ln)” value is, setting by setting: (30 °C) -4.58 ± 0.26; (37 °C) -1.71 ± 0.14.

Turning to ACCUAGCAAUAUUACGUUGA, the “self-splicing fitness (ln)” value is, setting by setting: (30 °C) -1.98 ± 0.087; (37 °C) -1.54 ± 0.098. In the same order, the values of GGAAAGCAAUAUUACGACGG are -4.1 ± 0.39 and -2.12 ± 0.4. The corresponding values for CGGAAGCAAUAUUACGGGCU are -3.27 ± 0.18 and -3.3 ± 0.25.

As to GUUCAGCAAUAUUACGCCGA, the “self-splicing fitness (ln)” value (30 °C) was -2.43 ± 0.31 and the “self-splicing fitness (ln)” value (37 °C) was -1.34 ± 0.29. Turning to CGCAAGCAAUAUUACGGUUA, the “self-splicing fitness (ln)” value was -2.32 ± 0.14 (30 °C) and -0.121 ± 0.085 (37 °C).

Turning to AUUUAGCAAUAUUACGCGUU, the “self-splicing fitness (ln)” value (30 °C) is -2.01 ± 0.2 and the “self-splicing fitness (ln)” value (37 °C) is -1.3 ± 0.19.

Regarding CCUUAGCAAUAUUACGUCGC, the “self-splicing fitness (ln)” value is -3.07 ± 0.4 (30 °C) and -2.66 ± 0.38 (37 °C). Regarding AAUAAGCAAUAUUACGUCAA, the “self-splicing fitness (ln)” value (30 °C) was -2.29 ± 0.14 and the “self-splicing fitness (ln)” value (37 °C) was -2.06 ± 0.12.

As to GCUAAGCAAUAUUACGAAGA, the “self-splicing fitness (ln)” value by setting is: (30 °C) -0.925 ± 0.087; (37 °C) -0.138 ± 0.098.

Turning to GCCGAGCAAUAUUACGAUUG, the “self-splicing fitness (ln)” value is, setting by setting: (30 °C) -2.48 ± 0.41; (37 °C) -2.24 ± 0.47. In the same order, the values of CCAUAGCAAUAUUACGCGCA are -2.65 ± 0.27 and -2 ± 0.34. The corresponding values for AUUUAGCAAUAUUACGGCAA are -1.05 ± 0.16 and -0.726 ± 0.17. Consider GAUGAGCAAUAUUACGUUUC, for which the “self-splicing fitness (ln)” value (30 °C) was -2.77 ± 0.31 and the “self-splicing fitness (ln)” value (37 °C) is -2.57 ± 0.29. With GCCUAGCAAUAUUACGGCUU, the “self-splicing fitness (ln)” value (30 °C) was -3.8 ± 0.22 and the “self-splicing fitness (ln)” value (37 °C) was -1.08 ± 0.16. Regarding ACUAAGCAAUAUUACGGAAU, the “self-splicing fitness (ln)” value is, setting by setting: (30 °C) -1.97 ± 0.1; (37 °C) -2.04 ± 0.16. The corresponding values for GGGCAGCAAUAUUACGACCA are -0.297 ± 0.28 and 0.951 ± 0.41. Consider UUCUAGCAAUAUUACGAAAA, for which the “self-splicing fitness (ln)” value runs as follows: (30 °C) -1.6 ± 0.14; (37 °C) -0.631 ± 0.13. On to UCGUAGCAAUAUUACGGAUG, for which the “self-splicing fitness (ln)” value (37 °C) was -1.89 ± 0.47. On to CGCUAGCAAUAUUACGCCCG, for which the “self-splicing fitness (ln)” value (30 °C) was -2.1 ± 0.22 and the “self-splicing fitness (ln)” value (37 °C) is -0.695 ± 0.35. Take AUAUAGCAAUAUUACGUUCA: the “self-splicing fitness (ln)” value was -0.388 ± 0.23 (30 °C) and -0.707 ± 0.23 (37 °C). In the same order, the values of GAACAGCAAUAUUACGUAAG are -1.06 ± 0.083 and -0.059 ± 0.093. As to GACGAGCAAUAUUACGUUCG, the “self-splicing fitness (ln)” value (30 °C) was -4.1 ± 0.24 and the “self-splicing fitness (ln)” value (37 °C) is -2.24 ± 0.23.

In the case of ACCUAGCAAUAUUACGCGAC, the “self-splicing fitness (ln)” value (30 °C) was -2.55 ± 0.2 and the “self-splicing fitness (ln)” value (37 °C) is -0.855 ± 0.19. As to AUAUAGCAAUAUUACGGCCU, the “self-splicing fitness (ln)” value by setting is: (30 °C) -0.457 ± 0.22; (37 °C) -1.58 ± 0.39.

Regarding CACCAGCAAUAUUACGACGA, the “self-splicing fitness (ln)” value is -2.13 ± 0.14 (30 °C) and -1.54 ± 0.12 (37 °C). In the same order, the values of UUGGAGCAAUAUUACGUGCG are -1.73 ± 0.28 and -0.739 ± 0.21. In the same order, the values of GAGAAGCAAUAUUACGUAAA are -2.16 ± 0.14 and -0.647 ± 0.17. The corresponding values for AGUUAGCAAUAUUACGGCUA are -0.379 ± 0.11 and -0.127 ± 0.11.

For the sequence CCAUAGCAAUAUUACGACAG, the “self-splicing fitness (ln)” value (30 °C) is -1.16 ± 0.092 and the “self-splicing fitness (ln)” value (37 °C) was -0.413 ± 0.1. The corresponding values for GAUAAGCAAUAUUACGUCGA are -1.54 ± 0.14 and -0.37 ± 0.13. The corresponding values for CUCGAGCAAUAUUACGGUGC are -2.95 ± 0.25 and -2.88 ± 0.31. In the same order, the values of GCCUAGCAAUAUUACGUGGC are -3.15 ± 0.32 and -1.6 ± 0.33.

Regarding AGAGAGCAAUAUUACGUUGG, the “self-splicing fitness (ln)” value (30 °C) was -3.15 ± 0.14 and the “self-splicing fitness (ln)” value (37 °C) is -2.76 ± 0.18.

As for UUAAAGCAAUAUUACGCCGC, the “self-splicing fitness (ln)” value (30 °C) was -2.1 ± 0.39 and the “self-splicing fitness (ln)” value (37 °C) is 0.305 ± 0.29.

For the sequence GCUUAGCAAUAUUACGAUUA, the “self-splicing fitness (ln)” value (30 °C) is -1.01 ± 0.11 and the “self-splicing fitness (ln)” value (37 °C) is -1.03 ± 0.1. The corresponding values for GCGUAGCAAUAUUACGAUGA are -0.962 ± 0.13 and 0.16 ± 0.14. Consider GUGUAGCAAUAUUACGUGUC, for which the “self-splicing fitness (ln)” value runs as follows: (30 °C) -2.67 ± 0.21; (37 °C) -0.104 ± 0.12. The corresponding values for ACCGAGCAAUAUUACGCCGU are -3.49 ± 0.3 and -1.75 ± 0.2. In the same order, the values of CACUAGCAAUAUUACGCCCA are -1.1 ± 0.16 and -1.35 ± 0.27. With UCAGAGCAAUAUUACGGAUG, the “self-splicing fitness (ln)” value by setting is: (30 °C) -3.87 ± 0.38; (37 °C) -2.06 ± 0.35. The corresponding values for AGGCAGCAAUAUUACGCGUG are -2.48 ± 0.13 and -0.717 ± 0.11. In the same order, the values of GCCCAGCAAUAUUACGAACU are -1.26 ± 0.14 and -1 ± 0.14. The corresponding values for AUCAAGCAAUAUUACGGCUA are -0.209 ± 0.097 and 0.184 ± 0.11.

For the sequence GGUGAGCAAUAUUACGUCAC, for the setting “30 °C”, the “self-splicing fitness (ln)” value is -3.1 ± 0.34. As to CGGUAGCAAUAUUACGUUAC, the “self-splicing fitness (ln)” value is, setting by setting: (30 °C) -3.32 ± 0.36; (37 °C) -2.09 ± 0.31. The corresponding values for CCCAAGCAAUAUUACGGACG are -2.8 ± 0.13 and -2.17 ± 0.11.

Take CGUGAGCAAUAUUACGUGAC: the “self-splicing fitness (ln)” value (30 °C) was -4.11 ± 0.36. With CCAGAGCAAUAUUACGGAAA, the “self-splicing fitness (ln)” value was -3.62 ± 0.32 (30 °C) and -2.19 ± 0.27 (37 °C). On to AACGAGCAAUAUUACGCUUA, for which the “self-splicing fitness (ln)” value (30 °C) is -2.86 ± 0.26 and the “self-splicing fitness (ln)” value (37 °C) was -1.31 ± 0.2.

As to GAAGAGCAAUAUUACGAUCA, the “self-splicing fitness (ln)” value by setting is: (30 °C) -2.36 ± 0.21; (37 °C) -1.01 ± 0.19. Regarding AAUGAGCAAUAUUACGCGGU, the “self-splicing fitness (ln)” value is, setting by setting: (30 °C) -2.93 ± 0.17; (37 °C) -3.12 ± 0.32. With AGCCAGCAAUAUUACGGUCG, the “self-splicing fitness (ln)” value is, setting by setting: (30 °C) -0.387 ± 0.078; (37 °C) -0.328 ± 0.092. In the same order, the values of GCAGAGCAAUAUUACGUGGG are -3.55 ± 0.12 and -3.03 ± 0.15. In the case of GAACAGCAAUAUUACGCUGC, the “self-splicing fitness (ln)” value (37 °C) was -1.69 ± 0.26. For the sequence GGGGAGCAAUAUUACGACAG, the “self-splicing fitness (ln)” value is -3.9 ± 0.39 (30 °C) and -2.33 ± 0.39 (37 °C). In the same order, the values of ACGGAGCAAUAUUACGUGAC are -2.68 ± 0.28 and -2.16 ± 0.42. In the same order, the values of AUCCAGCAAUAUUACGUUUU are -2.04 ± 0.083 and -1.15 ± 0.11. In the same order, the values of CUAUAGCAAUAUUACGUUGA are -3.67 ± 0.32 and -3.42 ± 0.35. Regarding GCUCAGCAAUAUUACGCACU, the “self-splicing fitness (ln)” value is, setting by setting: (30 °C) 0.181 ± 0.11; (37 °C) 0.213 ± 0.14.

In the case of GCAAAGCAAUAUUACGACGA, the “self-splicing fitness (ln)” value (30 °C) is -0.0819 ± 0.088 and the “self-splicing fitness (ln)” value (37 °C) is -0.213 ± 0.1.

As to AGGCAGCAAUAUUACGGUAA, the “self-splicing fitness (ln)” value reads like this: (30 °C) -2.35 ± 0.088; (37 °C) -1.75 ± 0.076.
